Measured values reported in the supplement of paper PMC10567573.

B1: ZNF263 (parent)
chain: FGGNPRFLSLHRAHLGEEAHKCLE
B2: WSB1 (parent)
chain: FSHDGLHVASLADDKMVRFWRIDE

Variants of: B1
Assay: protein stability index of a GFP-peptide fusion (GPS, HEK-293T) (PSI 1-6); higher = more stable
Settings: c terminus: a fixed tail appended
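Further: lentivirally expressed fusions sorted by FACS into six bins by GFP to DsRed ratio, PSI derived from sequencing read proportions per bin multiplied by bin number.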

Protein stability index, by site and new letter:
P5: M 1.96 | D 1.35 | E 2.19 | C 1.49 | R 2.01 | A 2.03 | T 2.17 | H 2.17 | F 1.62 | Q 2.2 | K 1.56 | L 1.69 | V 1.96 | W 1.96
N4: Q 1.51 | A 2.87 | F 2.15 | P 2.61 | S 1.14 | W 2.37 | R 2.46 | L 2.32 | M 1.03 | E 2.26 | K 2.31 | V 2.44 | T 1.66 | D 2.13 | Y 1.53
L23: R 1.7 | M 1.96 | F 1.8 | G 1.76 | V 1.83 | T 2.51 | Y 1.75 | W 1.75 | H 1.97 | A 2.65 | D 1.63 | S 1.63 | Q 1.92 | I 2.02 | E 1.97
G3: F 2.69 | Y 1.78 | S 2.25 | A 1.91 | M 2.05 | N 2.24 | D 3.36 | W 2.14 | I 3.04 | C 2 | Q 1.53
G2: N 2.22 | S 1.74 | C 1.61 | H 1.79 | P 2.13 | F 2.55 | W 2.24 | L 2.25 | A 1.59 | I 1.64 | M 2.35 | E 3.12 | Q 1.38 | T 3.64
H11: N 1.8 | R 1.91 | E 2.01 | T 3.17 | S 3.19 | C 2.23 | Y 3.3 | G 2.71 | F 2.41 | Q 1.6 | I 1.87 | D 2.22 | K 1.91
F7: R 3.15 | D 3.51 | T 3.22 | V 2.64 | L 2.56 | C 2.31 | I 2.19 | K 3.58 | N 3.42 | P 2.71 | G 2.63 | Q 3.49 | M 2.42 | A 2.79
E17: Y 1.56 | T 1.73 | P 1.41 | L 1.25 | I 1.19 | S 2.07 | R 1.78 | D 1.36 | F 2.94 | G 1.3 | K 2.5 | W 2.12 | A 1.42
F1: L 3.18 | E 3.61 | K 2.95 | S 3.69 | I 3.51 | W 1.99 | G 3.98 | V 3.87 | M 3.81 | R 3.69 | C 2.63 | Y 1.47
K21: H 1.89 | M 2.76 | P 2.13 | R 1.05 | D 1.86 | G 1.9 | L 2.14 | E 1.76 | N 2 | Y 1.71 | A 1.77 | S 1.85 | F 2.17 | T 2.04 | C 1.98 | Q 2
C22: E 2.19 | Y 1.88 | A 1.78 | M 1.74 | S 3.62 | F 1.74 | V 2.51 | L 1.38 | W 1.46 | N 2.17 | D 2.15
E24: P 1.63 | M 2.31 | R 1.75 | Q 2.37 | F 1.7 | W 3.02 | Y 1.51 | S 2.75 | I 1.51 | N 1.48 | D 1.71 | G 1.72 | A 1.77 | V 2.88 | L 2.52
H14: I 3.64 | P 1.59 | G 1.95 | T 3.21 | E 1.15 | C 1.95 | R 1.24 | V 1.96 | L 1.46 | N 1.49 | W 2.42 | M 1.69 | F 2.55 | K 1.81 | Y 1.86 | Q 2.6
A13: P 1.56 | V 1.79 | N 2.04 | L 1.43 | S 1.71 | M 2.21 | K 1.94 | R 2.08 | Y 1.72 | T 1.98 | Q 1.48 | H 2.26 | G 1.99 | F 2.52
R12: L 1.56 | S 2.17 | K 1.61 | F 2.35 | M 2.36 | Y 1.24 | I 1.84 | D 1.85 | A 2.08 | G 1.81 | Q 2.22 | P 1.46 | E 1.76 | W 1.58
L8: C 1.4 | A 2.43 | W 3.8 | R 2.27 | T 2.77 | G 2.1 | D 3.1 | M 2.25 | N 2.25 | P 2.01 | H 1.86 | V 2.5 | Y 3.2 | F 2.16 | I 1.41
R6: V 3.33 | Q 1.82 | S 1.79 | M 2.5 | H 2.37 | I 2.58 | C 3.09 | E 1.3 | N 1.89 | G 1.74 | W 5.27 | F 2.25
A19: G 1.58 | V 1.91 | H 1.75 | W 2.23 | K 1.49 | T 1.95 | Q 1.9 | I 2.36 | F 1.44 | D 1.99 | Y 1.57 | R 1.59 | E 2.14
E18: D 1.87 | T 1.46 | M 1.75 | V 2.43 | C 2.12 | Y 1.88 | S 2.34 | N 1.07 | A 1.77 | W 2.03 | K 1.39 | L 2.33 | R 1.62 | H 1.47
S9: L 2.25 | N 1.55 | V 1.71 | C 2.16 | A 1.52 | H 1.8 | Y 3.04 | K 1.64 | R 1.87 | T 1.8 | P 2.1 | M 1.15 | F 2.14
H20: K 2.56 | I 1.4 | S 2.69 | Y 2.18 | E 2.13 | N 1.49 | D 2.28 | G 1.53 | Q 1.04 | F 1.98 | P 1.83 | L 1.61 | T 1.55
L15: A 1.83 | H 2.33 | T 1.55 | W 2.28 | F 1.27 | M 1.62 | R 2.05 | Q 1.86 | S 1.73 | V 1.34 | N 1.7 | Y 2.58 | P 1.94
G16: T 1.94 | L 2.55 | P 2.12 | V 2.42 | A 2.1 | H 1.7 | E 2.51 | W 1.87 | C 1.83 | R 1.64 | S 2.06 | F 1.9 | D 1.63 | N 1.92 | Q 2.76
L10: F 1.8 | S 1.62 | I 2.06 | Y 2.33 | Q 2 | D 2.47 | K 2.24 | V 2.66 | E 2.64 | G 1.34 | A 1.74

Variants of: B2
Assay: as above
Settings: c terminus: a fixed tail appended

Protein stability index: each site, then its substitutions
E24: Y 1.97 | N 3 | S 1.61 | T 1.62 | R 1.78 | V 2.12 | W 2.56 | P 1.86
